Test results published in patent publication US20210206865A1 (Regeneron, published 2021).

Tests used:
[1] = target: T1, human CD3 on cells (Jurkat cells, primary human CD8+ T cells) (human, UniProt P07766 23-207; P04234 22-171; P20963 22-164; P09693 23-182); experiment: flow cytometry, primary human CD8+ T cells, median EC50, n=1
T1 construct: CD3 complex as part of the TCR on T cells; also called hCD3; Jurkat-hCD3
Protocol: (§1) Flow cytometric analysis was utilized to determine binding of BCMA×CD3 bispecific antibodies to human and cynomolgus CD3 (Jurkat cells, mfCD3 engineered Jurkat cells, primary human CD8+ and cynomolgus CD8+ T cells). Briefly, 1e05 cells/well were incubated in the presence of FACS wash with block (PBS+1% filtered FBS+5% mouse serum) with a serial dilution of BCMA×CD3 and control antibodies for 30 minutes on ice. After incubation, the cells were washed twice with cold FACS wash (PBS+1% filtered FBS) and bound antibody was detected by incubating with Alexa647-conjugated anti-human secondary antibody on ice for an additional 30 minutes. Wells containing no antibody or secondary only were used as a control. For the detection of monkey and human T cells, a cocktail of human and cynomolgus cross-reactive antibodies to CD4, CD8 and CD16 was added to the anti-human secondary. After incubation, cells were washed, re-suspended in 200 μL cold PBS containing 1% filtered FBS and analyzed by flow cytometry on a BD FACS Canto II. Cells were gated by FSC-H by FSC-A to select singlet events, followed by side and forward scatters to select for live events. For monkey T cells, additional gating on CD8+/CD16-cells was performed.
(§2) EC50 values for FACS binding were calculated using 4-parameter non-linear regression analysis in Prism software.

[2] = target: T1, human CD3 on cells (Jurkat cells, …); experiment: flow cytometry, Jurkat cells (human CD3), median EC50, n=5
Protocol: as §1, §2

[3] = target: T2, human BCMA on the surface of cell lines (NCI-H929, MM.1S, OPM-2, RPMI-8226, Daudi, Raji, MOLP-8, U266) (human, UniProt Q02223 1-184); experiment: cell-based or functional assay
T2 sequence: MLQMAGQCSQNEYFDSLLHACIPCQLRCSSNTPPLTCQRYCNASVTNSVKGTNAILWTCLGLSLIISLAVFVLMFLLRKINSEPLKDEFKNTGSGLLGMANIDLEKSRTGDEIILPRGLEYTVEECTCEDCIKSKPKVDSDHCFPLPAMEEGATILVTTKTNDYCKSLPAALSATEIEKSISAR

[4] = target: T2, human BCMA on the surface of cell lines …; experiment: cell-based or functional assay; remark: listed apart in the source
[5] = target: T2, human BCMA on the surface of cell lines …; experiment: cell-based or functional assay; remark: listed apart in the source
[6] = target: T2, human BCMA on the surface of cell lines …; experiment: cell-based or functional assay; remark: listed apart in the source
[7] = target: T3, human BCMA-MFC (extracellular domain of human BCMA with C-terminal mFc tag) (human); experiment: SPR Biacore, 25 C, mAb captured via anti-hFc
T3 construct: also called hBCMA.mFc
T3 chain: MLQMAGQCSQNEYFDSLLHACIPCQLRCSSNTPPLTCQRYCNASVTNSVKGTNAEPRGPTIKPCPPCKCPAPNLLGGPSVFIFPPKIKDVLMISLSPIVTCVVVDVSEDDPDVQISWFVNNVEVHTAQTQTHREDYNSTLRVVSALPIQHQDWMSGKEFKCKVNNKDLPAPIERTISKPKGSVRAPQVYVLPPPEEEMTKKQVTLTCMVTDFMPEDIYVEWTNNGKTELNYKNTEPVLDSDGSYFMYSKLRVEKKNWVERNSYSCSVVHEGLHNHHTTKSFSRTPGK
Protocol: (§3) The CM5 Biacore sensor surface was derivatized by amine coupling with a monoclonal mouse anti-human Fc antibody (GE, #BR-1008-39) to capture purified anti-BCMA mAbs and anti-BCMA×anti-CD3 bispecific mAbs. All Biacore binding studies were performed in a buffer composed of 0.01M HEPES pH 7.4, 0.15M NaCl, 3 mM EDTA, 0.05% v/v Surfactant P20 (HBS-ET running buffer). […] Antigen samples were then injected over the anti-BCMA and anti-BCMA×anti-CD3 bispecific mAbs captured surfaces at a flow rate of 30 μL/minute. Antibody-reagent association was monitored for 5 minutes while dissociation in HBS-ET running buffer was monitored for 10 minutes. All of the binding kinetics experiments were performed at 25° C. Kinetic association (kₐ) and dissociation (kd) rate constants were determined by fitting the real-time sensorgrams to a 1:1 binding model using Scrubber 2.0c curve fitting software. Binding dissociation equilibrium constants (KD) and dissociative half-lives (t1/2) were calculated from the kinetic rate constants as: […]

[8] = target: T4, monkey BCMA-MFC (monkey BCMA with C-terminal mFc tag) (monkey); experiment: SPR Biacore, 25 C, mAb captured via anti-hFc
T4 construct: also called mfBCMA.mFc
Protocol: as §3

T1 sequence (P07766 23-207 limits assumed, chain 1 of 4): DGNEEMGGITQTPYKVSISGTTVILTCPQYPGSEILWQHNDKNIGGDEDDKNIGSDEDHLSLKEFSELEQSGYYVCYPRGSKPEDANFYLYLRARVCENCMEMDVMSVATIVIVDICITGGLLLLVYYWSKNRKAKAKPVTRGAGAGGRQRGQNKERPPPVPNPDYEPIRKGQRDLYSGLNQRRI
T1 sequence (P04234 22-171 limits assumed, chain 2 of 4): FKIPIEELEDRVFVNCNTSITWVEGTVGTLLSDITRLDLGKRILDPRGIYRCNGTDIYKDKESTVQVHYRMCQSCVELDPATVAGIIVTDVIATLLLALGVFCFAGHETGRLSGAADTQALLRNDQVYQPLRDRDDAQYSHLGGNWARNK
T1 sequence (P20963 22-164 limits assumed, chain 3 of 4): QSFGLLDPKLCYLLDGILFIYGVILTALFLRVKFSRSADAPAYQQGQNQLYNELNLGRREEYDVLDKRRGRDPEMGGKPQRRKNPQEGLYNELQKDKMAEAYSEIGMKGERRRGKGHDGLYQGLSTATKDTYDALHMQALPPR
T1 sequence (P09693 23-182 limits assumed, chain 4 of 4): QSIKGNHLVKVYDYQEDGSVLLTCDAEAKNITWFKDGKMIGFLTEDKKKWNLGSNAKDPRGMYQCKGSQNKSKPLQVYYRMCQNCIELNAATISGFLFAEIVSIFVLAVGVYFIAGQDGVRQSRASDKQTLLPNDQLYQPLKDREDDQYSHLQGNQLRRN
T4 sequence (chain, as listed by the source limits assumed): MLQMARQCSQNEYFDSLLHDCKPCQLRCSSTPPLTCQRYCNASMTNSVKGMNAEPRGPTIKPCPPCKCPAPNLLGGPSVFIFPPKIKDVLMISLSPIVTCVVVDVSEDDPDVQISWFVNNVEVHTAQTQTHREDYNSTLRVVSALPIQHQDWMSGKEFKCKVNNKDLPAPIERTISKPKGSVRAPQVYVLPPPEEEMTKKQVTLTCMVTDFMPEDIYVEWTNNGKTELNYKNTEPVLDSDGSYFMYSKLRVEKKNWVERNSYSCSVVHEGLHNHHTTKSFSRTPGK

B1: bsAb25441D bispecific antibody (REGN5458), anti-BCMA x anti-CD3 (bispecific antibody, human IgG4 S228P, kappa)
heavy 1: EVQLVESGGGLVQPGGSLRLSCAASGFTFSNFWMTWVRQAPGKGLEWVANMNQDGSEKYYVDSVKGRFTISRDNAKSSLYLQMNSLRAEDTAVYYCARDREYCISTSCYDDFDYWGQGTLVTVSSASTKGPSVFPLAPCSRSTSESTAALGCLVKDYFPEPVTVSWNSGALTSGVHTFPAVLQSSGLYSLSSVVTVPSSSLGTKTYTCNVDHKPSNTKVDKRVESKYGPPCPPCPAPPVAGPSVFLFPPKPKDTLMISRTPEVTCVVVDVSQEDPEVQFNWYVDGVEVHNAKTKPREEQFNSTYRVVSVLTVLHQDWLNGKEYKCKVSNKGLPSSIEKTISKAKGQPREPQVYTLPPSQEEMTKNQVSLTCLVKGFYPSDIAVEWESNGQPENNYKTTPPVLDSDGSFFLYSRLTVDKSRWQEGNVFSCSVMHEALHNHYTQKSLSLSLGK
heavy 2: EVQLVESGGGLVQPGRSLRLSCAASGFTFDDYSMHWVRQAPGKGLEWVSGISWNSGSKGYADSVKGRFTISRDNAKNSLYLQMNSLRAEDTALYYCAKYGSGYGKFYHYGLDVWGQGTTVTVSSASTKGPSVFPLAPCSRSTSESTAALGCLVKDYFPEPVTVSWNSGALTSGVHTFPAVLQSSGLYSLSSVVTVPSSSLGTKTYTCNVDHKPSNTKVDKRVESKYGPPCPPCPAPPVAGPSVFLFPPKPKDTLMISRTPEVTCVVVDVSQEDPEVQFNWYVDGVEVHNAKTKPREEQFNSTYRVVSVLTVLHQDWLNGKEYKCKVSNKGLPSSIEKTISKAKGQPREPQVYTLPPSQEEMTKNQVSLTCLVKGFYPSDIAVEWESNGQPENNYKTTPPVLDSDGSFFLYSRLTVDKSRWQEGNVFSCSVMHEALHNRFTQKSLSLSPGK
light: not shown
notes: Anti-BCMA arm from mAb21581, anti-CD3 arm and common light chain from mAb7221G; also called bsAb25441D9; mAb25441D
**Q.** B1 was tested. Which EC50 [1] did it give?
**A.** 32 nM

**Q.** And the EC50 [2]?
**A.** 15 nM

**Q.** And the “Median EC50, % Survival of Molp8 target cells, human effector cells” value [3]?
**A.** 0.707 nM

**Q.** What about the “Median EC50, % Survival of RPMI8226 target cells, human effector cells” value [3] of the same binder?
**A.** 0.0345 nM

**Q.** And the “Median EC50, % T activation with Molp8 target cells, human effector cells” value [3]?
**A.** 1.1 nM

**Q.** What about the “Median EC50, % T activation with RPMI8226 target cells, human effector cells” value [3] of the same binder?
**A.** 0.0649 nM

**Q.** What about the “Median EC50, % Survival of H929 target cells, human effector cells” value [4] of the same binder?
**A.** 0.103 nM

**Q.** And the “Median EC50, % Survival of MM1S target cells, human effector cells” value [4]?
**A.** 0.0646 nM

**Q.** What about the “Median EC50, % Survival of U266 target cells, human effector cells” value [4] of the same binder?
**A.** 0.328 nM

**Q.** What about the “Median EC50, % T activation with H929 target cells, human effector cells” value [4] of the same binder?
**A.** 0.211 nM

**Q.** What about the “Median EC50, % T activation with MM1S target cells, human effector cells” value [4] of the same binder?
**A.** 0.0706 nM

**Q.** And the “Median EC50, % T activation with U266 target cells, human effector cells” value [4]?
**A.** 0.107 nM

**Q.** What about the “EC50, Jurkat/NFATLuc reporter activation with MOLP-8 cells” value [5] of the same binder?
**A.** 1.4 nM

**Q.** And the “EC50, Jurkat/NFATLuc reporter activation with RPMI-8226 cells” value [5]?
**A.** 0.61 nM

**Q.** What about the “EC50, Jurkat/NFATLuc reporter activation with Raji cells” value [5] of the same binder?
**A.** 1.6 nM

**Q.** And the “Median EC50, % Survival of H929 target cells, cynomolgus effector cells” value [6]?
**A.** 0.0234 nM

**Q.** What about the “Median EC50, % T activation with H929 target cells, cynomolgus effector cells” value [6] of the same binder?
**A.** 0.0683 nM

**Q.** What about the “30 nM hBCMA.mFc Bind (RU)” value [7] of the same binder?
**A.** 107 RU

**Q.** And the Kd [7]?
**A.** ≤ 0.0223 nM

**Q.** What about the t1/2 [7] of the same binder?
**A.** ≤ 19.2 h

**Q.** And the “30 nM mfBCMA.mFc Bind (RU)” value [8]?
**A.** 108 RU

**Q.** What about the Kd [8] of the same binder?
**A.** 0.167 nM

**Q.** And the t1/2 [8]?
**A.** 2.19 h

B2: bsAb25442D bispecific antibody (REGN5459), anti-BCMA x anti-CD3 (bispecific antibody, human IgG4 S228P, kappa)
heavy 1: EVQLVESGGGLVQPGGSLRLSCAASGFTFSNFWMTWVRQAPGKGLEWVANMNQDGSEKYYVDSVKGRFTISRDNAKSSLYLQMNSLRAEDTAVYYCARDREYCISTSCYDDFDYWGQGTLVTVSSASTKGPSVFPLAPCSRSTSESTAALGCLVKDYFPEPVTVSWNSGALTSGVHTFPAVLQSSGLYSLSSVVTVPSSSLGTKTYTCNVDHKPSNTKVDKRVESKYGPPCPPCPAPPVAGPSVFLFPPKPKDTLMISRTPEVTCVVVDVSQEDPEVQFNWYVDGVEVHNAKTKPREEQFNSTYRVVSVLTVLHQDWLNGKEYKCKVSNKGLPSSIEKTISKAKGQPREPQVYTLPPSQEEMTKNQVSLTCLVKGFYPSDIAVEWESNGQPENNYKTTPPVLDSDGSFFLYSRLTVDKSRWQEGNVFSCSVMHEALHNHYTQKSLSLSLGK
heavy 2: EVQLVESGGGLVQPGRSLRLSCAASGFTFDDYSMHWVRQAPGKGLEWVSGISWNSGSIGYADSVKGRFTISRDNAKNSLYLQMNSLRAEDTALYYCAKYGSGYGKFYYYGMDVWGQGTTVTVSSASTKGPSVFPLAPCSRSTSESTAALGCLVKDYFPEPVTVSWNSGALTSGVHTFPAVLQSSGLYSLSSVVTVPSSSLGTKTYTCNVDHKPSNTKVDKRVESKYGPPCPPCPAPPVAGPSVFLFPPKPKDTLMISRTPEVTCVVVDVSQEDPEVQFNWYVDGVEVHNAKTKPREEQFNSTYRVVSVLTVLHQDWLNGKEYKCKVSNKGLPSSIEKTISKAKGQPREPQVYTLPPSQEEMTKNQVSLTCLVKGFYPSDIAVEWESNGQPENNYKTTPPVLDSDGSFFLYSRLTVDKSRWQEGNVFSCSVMHEALHNRFTQKSLSLSPGK
light: not shown
notes: Anti-BCMA arm from mAb21581, anti-CD3 arm and common light chain from mAb7221G20; also called mAb25442D; mAb25442D-A647
**Q.** Which results are given for B2?
**A.** EC50 [1]: 4710 nM; EC50 [2]: 558 nM; Median EC50, % Survival of Molp8 target cells, human effector cells [3]: 1.36 nM; Median EC50, % Survival of RPMI8226 target cells, human effector cells [3]: 0.106 nM; Median EC50, % T activation with Molp8 target cells, human effector cells [3]: 6.47 nM; Median EC50, % T activation with RPMI8226 target cells, human effector cells [3]: 0.75 nM; Median EC50, % Survival of H929 target cells, human effector cells [4]: 0.301 nM; Median EC50, % Survival of MM1S target cells, human effector cells [4]: 0.288 nM; Median EC50, % Survival of U266 target cells, human effector cells [4]: 1.66 nM; Median EC50, % T activation with H929 target cells, human effector cells [4]: 0.3 nM; Median EC50, % T activation with MM1S target cells, human effector cells [4]: 0.458 nM; Median EC50, % T activation with U266 target cells, human effector cells [4]: 0.469 nM; EC50, Jurkat/NFATLuc reporter activation with MOLP-8 cells [5]: 11 nM; EC50, Jurkat/NFATLuc reporter activation with RPMI-8226 cells [5]: 2.6 nM; EC50, Jurkat/NFATLuc reporter activation with Raji cells [5]: 7.4 nM; Median EC50, % Survival of H929 target cells, cynomolgus effector cells [6]: 0.0692 nM; Median EC50, % T activation with H929 target cells, cynomolgus effector cells [6]: 0.158 nM; 30 nM hBCMA.mFc Bind (RU) [7]: 96.8 RU; Kd [7]: ≤ 0.0223 nM; koff [7]: ≤ 1e-05 s⁻¹; kon [7]: 449000 M⁻¹ s⁻¹; t1/2 [7]: ≤ 19.2 h; 30 nM mfBCMA.mFc Bind (RU) [8]: 97 RU; Kd [8]: 0.148 nM; koff [8]: 7.15e-05 s⁻¹; kon [8]: 482000 M⁻¹ s⁻¹; t1/2 [8]: 2.69 h
